From patent US20150017230A1 (ACADEMIA SINICA, published 2015)

T1: EpCAM antigen immobilized on CM5 sensor chip (human, UniProt P16422 24-265, limits assumed)
T1 sequence: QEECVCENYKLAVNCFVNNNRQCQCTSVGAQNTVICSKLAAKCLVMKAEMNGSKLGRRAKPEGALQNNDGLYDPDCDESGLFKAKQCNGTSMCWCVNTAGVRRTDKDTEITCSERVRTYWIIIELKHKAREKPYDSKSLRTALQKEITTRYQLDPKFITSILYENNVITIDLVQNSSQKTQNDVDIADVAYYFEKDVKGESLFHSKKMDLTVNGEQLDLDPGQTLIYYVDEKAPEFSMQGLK

T2: human epithelial cell adhesion molecule (EpCAM), endogenous in SAS and other cancer cells (human, UniProt P16422 24-314)
T2 construct: also called TACSTD1; epithelial specific antigen (ESA)
T2 sequence: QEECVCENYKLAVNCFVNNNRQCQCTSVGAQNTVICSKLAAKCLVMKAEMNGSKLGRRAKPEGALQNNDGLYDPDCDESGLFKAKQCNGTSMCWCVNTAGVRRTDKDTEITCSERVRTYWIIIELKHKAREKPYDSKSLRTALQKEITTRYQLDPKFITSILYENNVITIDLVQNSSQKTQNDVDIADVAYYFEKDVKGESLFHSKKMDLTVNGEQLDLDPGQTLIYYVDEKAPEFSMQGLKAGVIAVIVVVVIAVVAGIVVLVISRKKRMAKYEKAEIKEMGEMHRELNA


Legend:
[1] = biological target: T1, EpCAM antigen immobilized on CM5 sensor …; assay: SPR (BIAcore T100), EpCAM antigen immobilized on CM5 chip, mAb injected, 1:1 global fit
Protocol: (§1) The affinity of murine and humanized antibodies was performed by surface plasmon resonance (BIAcore T100, Biacore, Inc). EpCAM antigen was immobilized on a Series S Sensor Chip CM5 (Biacore, Inc) and injected at a flow rate of 10 μl/min. The mAbs were diluted in HBS-EP⁺ buffer (Biacore, Inc) and injected at a flow rate of 50 μl/min for 1.5 min, and were allowed to dissociate over 5 min. […] The data were analyzed by the BIAevaluation software with a global fit 1:1 binding model.

[2] = biological target: T1, EpCAM antigen immobilized on CM5 sensor …; assay: SPR (BIAcore), EpCAM antigen immobilized on CM5 chip, mAb injected
Protocol: as §1

[3] = biological target: T2, human epithelial cell adhesion molecule …; assay: cellular ELISA on SAS cells, OD490nm

Binder | Kd [1] [nM] | koff [2] [s⁻¹] | kon [2] [M⁻¹ s⁻¹] | EC50 (read off the curve) [3] [µg/mL] | Kd [2] [nM]
EpAb2-6 (antibody, V domains shown, Mouse hybridoma monoclonal IgG; also called mEpAb2-6; murine EpAb2-6) VH: EVQLVESGPELKKPGETVKISCKASGYTFTDYSMHWVKQAPGKGLKWMGWINTETGEPTFADDFKGRFAFSLETSARTTYLQINNLKNEDTATYFCARTAVYWGQGTSLTVSS VL: DIQLTQSPSSLSASLGERVSLTCRASQEISVSLSWLQQKPDGTIKRLIYATSTLDSGVPKRFSGSRSGSDYSLTISSLESEDFADYYCLQYASYPWTFGGGTKLEIKR | 0.349 | 0.00014 | 401000 | ~0.01 | –
humanized EpAb2-6 (antibody, V domains shown, CDRs of EpAb2-6 grafted onto a human IgG1 backbone; also called hEpAb2-6) VH: VKLQESGPELKKPGETVKISCKASGYTFTDYSMHWVKQAPGKGLKWMGWINTETGEPTYADDFKGRFAFSLETSASTAYLQINNLKNEDTATYFCARTAVYWGQGTTVTVSS VL: DIQMTQSPSSLSASLGERVSLTCRASQEISVSLSWLQQEPDGTIKRLIYATSTLDSGVPKRFSGSRSGSDYSLTISSLESEDFVDYYCLQYASYPWTFGGGTKLEIKR | 0.677 | 0.000254 | 376000 | ~0.02 | –
EpAb4-1 (antibody, V domains shown) VH: QIQLVQSGPELKKPGETVKISCKASGYTFTNYGMNWVKQAPGKGLKWMGWINTYTGEPTYGDDFKGRFAFSLETSASTAYLQINNLKNEDTATYFCARFGRSVDFWGQGTSVTVSS VL: DIVMTQAAFSNPVTLGTSASISCRSSKSLLHSNGITYLYWYLQKPGQSPQLLIYHMSNLASGVPDRFSSSGSGTDFTLRISRVEAEDVGIYYCAQNLENPRTFGGGTKLEIK | – | 3.52e-07 | 286000 | – | 0.00123
